# Test results published in article PMC10641528, “A conserved, noncanonical insert in FIS1 mediates TBC1D15 and DRP1 recruitment for mitochondrial fission” (The Journal of Biological Chemistry, 2023).
# Target: DRP1, endogenous (dynamin family GTPase) (human (endogenous in HCT116)) (UniProt O00429)
# Assay: co-IP; endogenous DRP1 immunoprecipitated (mouse monoclonal sc-271583 on protein A/G beads) from lysates of HCT116 cells transfected with pcDNA or pcDNA-FIS1 variants and cross-linked with 0.25% PFA; FIS1 blotted; scored as ratio of immunoprecipitated to input FIS1; lysis buffer 10 mM Tris/Cl pH 7.5, 150 mM NaCl, 0.5 mM EDTA, 0.5% NP-40 substitute
# Conditions: not given
# Chain of DRP1, endogenous (dynamin family GTPase) (human (endogenous in HCT116)) (O00429 whole entry): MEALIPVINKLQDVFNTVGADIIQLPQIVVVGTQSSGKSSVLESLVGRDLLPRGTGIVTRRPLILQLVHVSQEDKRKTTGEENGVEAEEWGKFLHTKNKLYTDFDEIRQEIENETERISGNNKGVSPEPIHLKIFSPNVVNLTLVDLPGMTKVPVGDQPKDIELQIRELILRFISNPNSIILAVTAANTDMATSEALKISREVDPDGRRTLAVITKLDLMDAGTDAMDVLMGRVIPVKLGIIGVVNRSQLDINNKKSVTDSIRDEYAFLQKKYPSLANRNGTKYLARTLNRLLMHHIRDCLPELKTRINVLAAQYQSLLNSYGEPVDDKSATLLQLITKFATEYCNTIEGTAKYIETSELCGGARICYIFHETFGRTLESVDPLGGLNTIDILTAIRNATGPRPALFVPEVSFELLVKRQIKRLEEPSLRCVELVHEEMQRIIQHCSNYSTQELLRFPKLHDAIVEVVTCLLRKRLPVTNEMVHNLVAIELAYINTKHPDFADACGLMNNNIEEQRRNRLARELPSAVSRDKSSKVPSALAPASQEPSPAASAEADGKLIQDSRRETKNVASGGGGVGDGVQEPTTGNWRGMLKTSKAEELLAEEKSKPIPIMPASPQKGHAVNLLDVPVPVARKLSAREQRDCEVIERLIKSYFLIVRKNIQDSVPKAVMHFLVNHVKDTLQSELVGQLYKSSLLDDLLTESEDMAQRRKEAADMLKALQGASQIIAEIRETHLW
row,ratio of immunoprecipitated to input FIS1,Molecule
1,3.9,FIS1 5LA variant (five conserved TPR Leu residues replaced with Ala) (from UniProt Q9Y3D6 1-145) (natural protein)

# Target: T1, DRP1, endogenous (dynamin family GTPase) (human (endogenous in HCT116), UniProt O00429 1-736)
# T1 construct: DRP1 endogenous in HCT116 cells; Immunoprecipitated with mouse monoclonal DRP1 antibody sc-271583; source: endogenous, HCT116 lysate (PFA cross-linked cells)
# Assay: as above
# Conditions: partners not purified
# T1 sequence (O00429 whole entry): as above
row,ratio of immunoprecipitated to input FIS1,Molecule
1,1.3 ± 0.9,"FIS1 ΔSKY variant (SKY insert deleted) (natural protein, human, human FIS1 with S45, K46, Y47 deleted, expressed from pcDNA; source: HCT116, transfected, in lysate (PFA cross-linked cells)) MEAVLNELVSVEDLLKFEKKFQSEKAAGSVSKSTQFEYAWCLVRNDDIRKGIVLLEELLPKGSKEEQRDYVFYLAVGNYRLKEYEKALKYVRGLLQTEPQNNQAKELERLIDKAMKKDGLVGMAIVGGMALGVAGLAGLIGL"
2,0.9 ± 0.2,"FIS1 ΔSKYD49G variant (SKY insert deleted, D49 replaced by Gly) (natural protein, human, human FIS1 with S45, K46, Y47 deleted and D49 replaced by Gly (wildtype numbering), expressed from pcDNA; source: HCT116, transfected, in lysate (PFA cross-linked cells)) MEAVLNELVSVEDLLKFEKKFQSEKAAGSVSKSTQFEYAWCLVRNGDIRKGIVLLEELLPKGSKEEQRDYVFYLAVGNYRLKEYEKALKYVRGLLQTEPQNNQAKELERLIDKAMKKDGLVGMAIVGGMALGVAGLAGLIGL"
3,0.7 ± 0.1,"Mitochondrial fission protein 1 (FIS1), wildtype, ectopically expressed from pcDNA-FIS1 WT (natural protein, human, human mitochondrial fission protein 1 (FIS1), wildtype, expressed from pcDNA; No tag is mentioned; detected with an anti-FIS1 antibody; also called WT FIS1; source: HCT116, transfected, in lysate (PFA cross-linked cells)) MEAVLNELVSVEDLLKFEKKFQSEKAAGSVSKSTQFEYAWCLVRSKYNDDIRKGIVLLEELLPKGSKEEQRDYVFYLAVGNYRLKEYEKALKYVRGLLQTEPQNNQAKELERLIDKAMKKDGLVGMAIVGGMALGVAGLAGLIGL"
4,0.7 ± 0.3,"FIS1 D49G variant (natural protein, human, human FIS1 that keeps the SKY insert, with D49 replaced by Gly, expressed from pcDNA; source: HCT116, transfected, in lysate (PFA cross-linked cells)) MEAVLNELVSVEDLLKFEKKFQSEKAAGSVSKSTQFEYAWCLVRSKYNGDIRKGIVLLEELLPKGSKEEQRDYVFYLAVGNYRLKEYEKALKYVRGLLQTEPQNNQAKELERLIDKAMKKDGLVGMAIVGGMALGVAGLAGLIGL"
5,0.9 ± 0.1,"FIS1 AAA variant (SKY insert substituted with three alanines) (natural protein, human, human FIS1 with S45, K46, Y47 replaced by three Ala, expressed from pcDNA; also called AAA FIS1 variant; source: HCT116, transfected, in lysate (PFA cross-linked cells)) MEAVLNELVSVEDLLKFEKKFQSEKAAGSVSKSTQFEYAWCLVRAAANDDIRKGIVLLEELLPKGSKEEQRDYVFYLAVGNYRLKEYEKALKYVRGLLQTEPQNNQAKELERLIDKAMKKDGLVGMAIVGGMALGVAGLAGLIGL"
